The values below come from patent US20220259315A1.

Assay [1] concerns the target human PD-1 (cell surface) (human) (UniProt Q15116). As to the kind of experiment: column 'Affinity (nM)'; per the footnote of Table 2, FACS staining of cell surface PD-1 on activated CD4 T cells.
Assay [2] shares this target.
For assay [3] the target is unchanged. Put plainly: column 'Affinity (nM)'; per the footnote of Table 2, FACS staining of cell surface PD-1 on activated CD4 T cells (Table 5 prints 0.6 for MK3575).

Sequence of human PD-1 (cell surface) (human) (Q15116 25-288 limits assumed): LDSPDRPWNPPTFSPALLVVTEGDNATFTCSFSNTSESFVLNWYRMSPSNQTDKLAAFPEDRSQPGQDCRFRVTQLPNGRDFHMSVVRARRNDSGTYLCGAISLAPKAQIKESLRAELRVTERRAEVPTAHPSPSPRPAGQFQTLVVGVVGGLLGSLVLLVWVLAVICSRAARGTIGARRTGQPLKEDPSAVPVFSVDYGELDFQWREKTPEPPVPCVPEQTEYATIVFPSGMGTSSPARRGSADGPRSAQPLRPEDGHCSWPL

Substance BMS-5C4 (antibody) returned an Affinity in assay [1] of 0.6 nM. In assay [2], this substance came in with an EFRA, column 'Functional effect: % CFSE low CD8 T cells' of 175%.

For the substance IgG1 control (antibody), the EFRA, column 'Functional effect: % CFSE low CD8 T cells' in assay [2] is 100%.

MK-3475 (pembrolizumab) (antibody): in assay [3], the Affinity was found to be 0.5 nM.
